Measured values as given in patent US20150037339A1 (Regeneron, published 2015).
Numbering of substitutions follows the chain as printed.

T1: Activin A (human, UniProt P08476 311-426)
T1 sequence: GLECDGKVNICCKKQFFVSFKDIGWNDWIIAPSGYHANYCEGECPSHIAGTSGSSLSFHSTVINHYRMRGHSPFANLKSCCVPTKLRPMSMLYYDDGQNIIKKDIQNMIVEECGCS

T2: Activin AB (human, UniProt P08476 311-426; P09529 293-407)
T2 construct: Heterodimer of one betaA and one betaB subunit; bought (R&D Systems #1006-AB-005 / #1066-AB)
T2 chain 1: T1 sequence
T2 chain 2: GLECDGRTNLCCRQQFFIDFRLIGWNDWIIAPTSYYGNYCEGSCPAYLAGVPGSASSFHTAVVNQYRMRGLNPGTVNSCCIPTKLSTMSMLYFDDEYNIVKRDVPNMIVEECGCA

T3: Activin AC (human, UniProt P55103 237-352)
T3 construct: Heterodimer of one betaA and one betaC subunit; bought (R&D Systems #4879-AC)
T3 sequence 1: T1 sequence
T3 sequence 2: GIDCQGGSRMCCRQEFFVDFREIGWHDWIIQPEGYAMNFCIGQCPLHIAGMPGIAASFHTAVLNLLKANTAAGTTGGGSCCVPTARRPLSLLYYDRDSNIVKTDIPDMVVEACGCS

T4: Activin A (human, UniProt P08476 311-426)
T4 construct: Homodimer of two βA subunits; bought from R&D Systems (#338-AC); also called inhibin-βA dimer; human Activin A
T4 sequence: T1 sequence

B1: H4H10423P (antibody, human IgG4, V domains shown)
VH: QVQLQQSGPGLLKPSQTLSLTCAISGDSVSSNSAAWSWIRQSPSRGLEWLGRTYYRANWFNDYALSVKSRITINPVTSTNHFSLQLHSVTPEDTAVYYCAREGALGYYFDSWGQGTLVTVSS
VL: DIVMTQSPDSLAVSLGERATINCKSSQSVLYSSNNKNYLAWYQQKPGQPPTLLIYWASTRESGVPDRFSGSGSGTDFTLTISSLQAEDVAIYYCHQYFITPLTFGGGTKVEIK
B2: H4H10424P (antibody, human IgG4, V domains shown)
VH: QVQLVESGGGVVQPGRSLRLSCAASGFTFSSYGMHWVRQAPGKGLEWVAVIWYDGSNKYNADSVKGRFTISRDNSKNTVYLQMNSLRAEDTAVYYCARARNYDILTGYYNLGMDVWGQGTTVTVSS
VL: DIQMTQSPSSLSASVGDRVTITCRASQGIRNDLGWYQQKPGKAPKRLIYAASSLQSGVPSRFSGSGSGTEFTLTISSLQPEDFATYYCLQHNSYPYTFGQGTKLEIK
B3: H4H10426P (antibody, human IgG4, V domains shown)
VH: EVQLVESGGNLVQSGRSLRLSCTASGFAFDDFAMHWVRQVPGKGLEWVSGISWNSDTIGYADSVKGRFTISRDNAQNSLFLQMDSLRAEDTALYYCVKDMVRGLIGYYYYGMDVWGQGTTVTVSS
VL: EIVLTQSPAILSLSPGERAILSCRASQSIYTYLSWYQQTPGRAPRLLIYETSSRATGIPARFIGSGSGTDFTLTISSLEPEDFAFYYCQHRSDWPPTFGQGTKLEIK
B4: H4H10437P2 (antibody, human IgG4, V domains shown)
VH: EVQLVESGGGLVQPGRSLRLSCAASGFTFDDYAMHWVRQAPGKGLEWVSGISWNSGSIGYADSVKGRFTISRDNAKNSLYLQMNSLRAEDTALYYCAKDIMGNWDYFYGMDVWGQGTTVTVSS
VL: not shown
B5: H4H10438P2 (antibody, human IgG4, V domains shown)
VH: EVQLVESGGGLVQPGRSLRLSCAASGFTFDDNAMHWVRQPPGKGLEWVSGISWNSGSIGYADSVKGRFTISRDNAKNSLYLQMNSLRAEDTALYYCAKDINDILTGYPLFDYWGQGTLVTVSS
VL: not shown
B6: H4H10445P2 (antibody, human IgG4, V domains shown)
VH: QVQLQESGPGLVKPSETLSLICSVSGGSFSSHFWSWIRQPPGKGLEWIGYVLYSGGTNYNPSLKSRVTISVDTSKNQFFLKLSSVTAADTADYYCARAISGITFGGIIVPGSFDIWGQGTMVTVSS
VL: not shown
B7: H4H10447P2 (antibody, human IgG4, V domains shown)
VH: B6 VH with I21T, V51I, L52H, F79S, S83T, I107M, I115V, Q118E
VL: not shown
B8: H4H10448P2 (antibody, human IgG4, V domains shown)
VH: QVQLQESGPGLVKPSETLSLTCTVSGGTFSSHFWSWIRQPPGKGLEWIGYIFYTGGTNHNPSLKSRVTISIDTSKNQFSLKLTSVTAADTAVYYCARARSGITFGGVIVPGSFDIWGQGTMVTVSS
VL: not shown
B9: H4H10452P2 (antibody, human IgG4, V domains shown)
VH: QVQLQESGPGLVKPSETLSLTCTVSGGSFSSHFWNWIRQSPGRGLEWIGYIYYSGGTNYNPSFKSRVTMSVDTSKNQFSLKLSSVTAADTAVFYCARARSGITFGGVLVPGSFDIWGQGTMVTVSS
VL: not shown
B10: H2aM10965N (antibody, mouse IgG2a, V domains shown)
VH: RVQLVQSGSEVKKPGASVKVSCRASGYIFTSYDINWVRQATGQGLEWMGWMNPNNGNTAYTQKFQGRVTMTRNTSISTAYMELSSLRSEDTAVYYCARKGLLWFGKLLGYGMDVWGQGTTVTVSS
VL: not shown
B11: H4H10438P2 (antibody, human IgG4, V domains shown)
VH: B5 VH
VL: not shown
B12: H4H10424P (antibody, human IgG4, V domains shown)
VH: B2 VH
VL: B2 VL
B13: H4H10426P (antibody, human IgG4, V domains shown)
VH: B3 VH
VL: B3 VL
B14: H4H10433P2 (antibody, human IgG4, V domains shown)
VH: EVQLVESGGGLVQAGRSLRLSCEASGFTFDDYGMHWVRQGPGKGLEWVSGISWNSGNIDYADSVKGRFTISRDNAKTSLYLQMNSLKTDDTALYFCAKDAVGFNWNYFLFDYWGQGTLVTVSS
VL: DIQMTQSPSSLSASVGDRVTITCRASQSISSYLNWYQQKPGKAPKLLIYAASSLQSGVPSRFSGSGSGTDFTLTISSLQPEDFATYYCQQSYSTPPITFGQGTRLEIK
B15: H4H10437P2 (antibody, human IgG4, V domains shown)
VH: B4 VH
VL: not shown
B16: H2aM10965N (antibody, mouse IgG2a, V domains shown)
VH: B10 VH
VL: not shown

Experiments:
Activin A [1] = target: T1, Activin A; assay: cell-based or functional assay
Activin AB [2] = target: T2, Activin AB; assay: SPR (Biacore), mAb captured on anti-Fc, Activin AB injected, 25 C
Procedure: (§1) Antibody-antigen association was monitored for 240 seconds while dissociation in buffer was monitored for 600 seconds. Kinetic association and dissociation rate constants were determined by processing and fitting the data using Scrubber software version 2.0c. Binding equilibrium dissociation constants (KD) and dissociative half-lives (t_{1/2}) were then calculated from the kinetic rate constants as: KD (M)=kd/kₐ and t_{1/2} (min)=[ln 2/(60*kd)]. (NB=no binding observed under the conditions used; NT=not tested).

Activin AB [3] = target: T2, Activin AB; assay: SPR (Biacore), mAb captured on anti-Fc, Activin AB injected, 37 C
Procedure: as §1

Activin AC [4] = target: T3, Activin AC; assay: SPR (Biacore), mAb captured on anti-Fc, Activin AC injected, 25 C
Procedure: as §1

Activin AC [5] = target: T3, Activin AC; assay: SPR (Biacore), mAb captured on anti-Fc, Activin AC injected, 37 C
Procedure: as §1

Activin A [6] = target: T4, Activin A; assay: SPR, captured mAb, 25C
Procedure: as §1

Activin A [7] = target: T4, Activin A; assay: SPR, captured mAb, 37C
Procedure: as §1

Binder	IC50 [M], inhibition of 100 pM Activin A in A204/CAGAx12-Luc Smad2/3-luciferase bioassay (Activin A [1])	Activin A-20 nM (RU) (Activin A [6])	Kd (Activin A [6])	koff (Activin A [6])	kon (Activin A [6])	t1/2 (Activin A [6])	Activin A-20 nM (RU) (Activin A [7])	Kd (Activin A [7])	koff (Activin A [7])	kon (Activin A [7])	t1/2 (Activin A [7])	further results
B1	2e-10 M	–	–	–	–	–	–	–	–	–	–	50 nM Ag Bound (RU) (Activin AB [2]): 14.7 RU; Kd (Activin AB [2]): 33.1 nM; koff (Activin AB [2]): 0.0203 s⁻¹; kon (Activin AB [2]): 613000 M⁻¹ s⁻¹; t1/2 (Activin AB [2]): 0.6 min; 50 nM Ag Bound (RU) (Activin AB [3]): 21.7 RU; Kd (Activin AB [3]): 24.2 nM; koff (Activin AB [3]): 0.0213 s⁻¹; kon (Activin AB [3]): 880000 M⁻¹ s⁻¹; t1/2 (Activin AB [3]): 0.5 min; 50 nM Ag Bound (RU) (Activin AC [4]): -0.8 RU; 50 nM Ag Bound (RU) (Activin AC [5]): 0 RU
B2	7.6e-10 M	–	–	–	–	–	–	–	–	–	–	–
B3	2.3e-10 M	–	–	–	–	–	–	–	–	–	–	–
B4	2.9e-10 M	–	–	–	–	–	–	–	–	–	–	–
B5	2.6e-10 M	–	–	–	–	–	–	–	–	–	–	–
B6	5.3e-11 M	–	–	–	–	–	–	–	–	–	–	–
B7	7.8e-11 M	–	–	–	–	–	–	–	–	–	–	–
B8	4.6e-11 M	–	–	–	–	–	–	–	–	–	–	–
B9	5.8e-11 M	–	–	–	–	–	–	–	–	–	–	–
B10	3.5e-09 M	–	–	–	–	–	–	–	–	–	–	–
B11	–	25 RU	0.0492 nM	0.000588 s⁻¹	1.2e+07 M⁻¹ s⁻¹	20 min	18 RU	0.127 nM	0.00238 s⁻¹	1.87e+07 M⁻¹ s⁻¹	5 min	–
B12	–	82 RU	0.229 nM	0.000719 s⁻¹	3.14e+06 M⁻¹ s⁻¹	16 min	58 RU	0.794 nM	0.00364 s⁻¹	4.59e+06 M⁻¹ s⁻¹	3 min	–
B13	–	23 RU	0.0595 nM	0.0007 s⁻¹	1.18e+07 M⁻¹ s⁻¹	16 min	21 RU	0.123 nM	0.00198 s⁻¹	1.61e+07 M⁻¹ s⁻¹	6 min	–
B14	–	16 RU	0.0406 nM	0.000577 s⁻¹	1.42e+07 M⁻¹ s⁻¹	20 min	12 RU	0.0537 nM	0.00107 s⁻¹	2e+07 M⁻¹ s⁻¹	11 min	–
B15	–	30 RU	0.134 nM	0.00213 s⁻¹	1.58e+07 M⁻¹ s⁻¹	5 min	20 RU	0.229 nM	0.00468 s⁻¹	2.04e+07 M⁻¹ s⁻¹	2 min	–
B16	–	76 RU	0.745 nM	0.0011 s⁻¹	1.48e+06 M⁻¹ s⁻¹	10 min	80 RU	1.77 nM	0.00415 s⁻¹	2.35e+06 M⁻¹ s⁻¹	3 min	–
